# Measurements reported in patent US20210205462A1, “Translocation into Eukaryotic Cells” (The University Court of the University of Aberdeen, priority 2018, published 2021).
# B1: SpHtp1a: SpHtp1 homolog shown in FIG. 6 (protein)
# chain: MRIYHPLTLAALCVVLHESLGAAQHSNNVARLEHYSVAEIEHWEKRHLRNSDSRGHRHHAHHGQVIDKENNNSQEQATTGNSVETNQVPFTQPTKDKTASIKTAVFKLLRENKLKTKNAGNGHAHDDDDDDDSNFSDDDVPTNAPTGAPTGAPTDAPTNAPTDAPTDAPTDAPTDAPTDAPTDAPTDAPTTLPPMPRRRSHRCPDRHSHRCDPRRTHGCPD
# modifications: SpHtp1a (1-221)
# B2: SpHtp1: putative effector protein from the fish pathogenic oomycete Saprolegnia parasitica, full-length 198 amino acids (protein)
# chain: MRIHHPLTLAALCVVLHESLGAAQHSNNVARLEHYRIAEIEHWEKRHLRSDSRGHRHHAHHGQVIDKENNNSQEQATTGNSVETNQVPSTEPTKDKTTPMKNALFKLFREKKLKTKNAGNGHAHDDDDDSDFSDDDVPTNAPTDAPTGAPTDAPTDAPTVAPTDAPTDAPTEAPTNAPTGTDAPTDAPTDAQVVPTFD
# modifications: SpHtp1 (1-198)
# Columns and labels:
# [1] = test system: RTG-2 cells; assay: Translocation mechanism study with uptake pathway inhibitors in RTG-2 cells; format: cell-based, rainbow trout; details: 80 μM dynasore, 1× Brefeldin A or 100 μM nystatin pre-incubation; 3 μM SpHtp1^24-68-mRFP 1 h at 18° C.
# Experimental: (§1) Cell culture maintenance of fish RTG-2 (ATCC CCL-55) was done according to the manufacturer's or publisher's instructions. L-15 medium was supplemented with 10% FBS, 100 units/ml Penicillin and 100 μg/ml Streptomycin. Wells containing cover slips with attached cells of 80% confluent were washed 2× with HBSS before translocation experiments.
# For experiments investigating translocation mechanism, cells were pre-incubated with various inhibitors (80 μM of dynasore, 1× Brefeldin A or 100 μM nystatin) for 1 h at 18° C., 2 h for dynasore (FIG. 2). Afterwards, 3 μM SpHtp1^24-68-mRPF were incubated for another 1 h at 18° C. For the time course experiment (FIG. 2) cells were pre-incubated with 10 μM dynasore and the incubation with 3 μM SpHtp1^24-68-mRPF at 18° C. stopped at the times as indicated. In order to investigate the influence of SpHtp1^24-198-His on the vesicle release of SpHtp3^21-211-RFP, 3 μM of each protein was pre-incubated in L-15 for 30 min at RT before added to the cells for the usual incubation of 1 h at 18° C.
# (§2) After incubation human as well as fish cells were washed 3× with HBSS and fixed with 4% ice-cold PFA in PBST (PBS+0.1% tween) for 15 min at RT. Residual PFA was removed with 5× washing steps with PBS. Cells were mounted with Vectashield with DAPI. Samples were analysed by a Zeiss LSM710 confocal microscope or an epifluorescence microscope (Zeiss Imager M2 with metal halide light source). For quantification mean intensity or vesicles per cell were counted with ImageJ. A maximum of 5 cells were analysed from the same picture. Bars denote s.e.m of 50 cells counted per sample.
# [2] = test system: human A549 cells; assay: Inhibitor studies of SpHtp1^24-68-mRFP translocation into A549 cells; format: cell-based
# Experimental: as §1, with “human A549 cell,” for “fish RTG-2 (ATCC CCL-55)”, “DMEM” for “L-15”, “before the” for “before”
# For the inhibitor studies, A549 cells were pre-incubated with different concentrations of SCH-202676 (allosteric inhibitor via disulfhydryl group) as indicated for 1 h at 37° C. and after this incubated for another 1 h at 37° C. with 3 μM SpHtp1^24-68-mRPF.
# as §2
# [3] = target: T1, β2-adrenergic receptor (Homo sapiens, UniProt P07550)
# [4] = test system: fish cells; assay: Translocation into fish cells; format: cell-based
# [5] = test system: human cells (such as HEK cells or the human epithelial lung cell line A549); assay: Translocation into human cells; format: cell-based
# [6] = test system: human A549 cells; assay: Translocation of SpHtp1^24-68-mRFP into human A549 cells; format: cell-based; details: see FIG. 2A, 2C
# Experimental: as §1, with “human A549 cell,” for “fish RTG-2 (ATCC CCL-55)”, “DMEM” for “L-15”, “before the” for “before”
# For translocation experiments using SpHtp1-coupled microparticles (FIG. 1), 300 μg carbon beads were pre-incubated with 3 μM SpHtp1^24-68-mRPF in 300 μl DMEM without Fetal Calf Serum for 1 h at 37° C. on a rotator to couple the SpHtp1 translocation sequence to the particles. […] Following coupling, the supplemented medium was applied to the cells for 1 h at 37° C. For translocation experiments using SpHtp1^24-68-mRPF (FIG. 2) cells were incubated with 3 μm SpHtp1^24-68-mRPF for 1 h at 37° C.
# as §2
# [7] = test system: SpHtp3; assay: Protein cross linking of SpHtp1 and SpHtp3; format: binding, Saprolegnia parasitica; details: PFA cross link; FIG. 5E
# Experimental: In order to detect a direct interaction, 10 μg of SpHtp1 and 10 μg of SpHtp3 or each protein alone were pre-incubated in PBS (total: 15 μl) for 15 min at RT. For cross linking 15 μl ice-cold 4% PFA/PBS (final concentration: 2%) was added and incubated for 10 min at RT. The reaction was stopped with 7 μl Laemmli loading dye and subsequent heating to 65° C. for 10 min. Complex formation was investigated by SDS-PAGE and confirmed by LC-MS/MS.
# [8] = test system: cells; assay: Cytotoxic effects, cell morphology and viability after extended incubation; format: cell-based; details: extended incubation periods of up to 24 hours
# [9] = target: T1, β2-adrenergic receptor; assay: Co-immunoprecipitation with anti-β2 adrenoceptor antibody; format: binding; set-up: confluent A549 cells from a 75 cm^2 flask where detached and resuspended in 500 μl PBS; The cells were lysed by sonication; endogenous in cells; host or cells: A549 (human lung epithelial cell line), sonicated lysate supernatant; details: A549 lysate, 10 μM SpHtp1^24-68-RFP; FIG. 3C
# Experimental: For co-immunoprecipitation (FIG. 3) confluent A549 cells from a 75 cm^2 flask where detached and resuspended in 500 μl PBS. The cells were lysed by sonication (3×30 sec, 30% intensity, 1 min break on ice) and cell debris removed by centrifugation (16,000×g, 25 min, 4° C.). The supernatant was supplemented with 10 μM SpHtp1^24-68-RFP and 2.5 μg of an anti-82 adrenoceptor and incubated overnight on rotator at 4° C. The next day 200 μl PBS-equilibrated protein G/A beads were added for 2.5 h on rotator at 4° C. After, beads were washed 5 times with 1 ml PBS each. The elution was done with SDS sample buffer and boiling at 95° C. for 10 min.
# For the immunoblot, samples were transferred to a nitrocellulose membrane and blocked with 5% milk powder in PBST (PBS+0.1% tween) for 1 h at RT. Incubation of the first antibody (anti-(32 adrenoceptor, 1:200) was done overnight on rotator at 4° C. Excess of antibody was removed by 3 washing steps with PBST, 5 min each. The secondary antibody (anti-rabbit HRP-coupled, 1:1000) was incubated for 1 h at RT in PBST with 5% milk powder. The membrane was washed 4 times (2×PBST and 2×PBS) before the bands were visualised with an ECL substrate and a developer.
molecule,measurement,setting,value
C[C@H]1CCC/C=C/[C@@H]2C[C@H](O)C[C@H]2[C@H](O)/C=C/C(=O)O1 [Brefeldin A],effect on SpHtp1^24-68-mRFP translocation,[1],no effect
CN=c1nc(-c2ccccc2)n(-c2ccccc2)s1 [SCH-202676],binding of SpHtp1^24-68-mRFP to the cells after pre-incubation with inhibitor,"[2]; 10 μM SCH-202676, FIG. 3A",not influenced
same,translocation of SpHtp1^24-68-mRFP into cells after pre-incubation with inhibitor,"[2]; 10 μM SCH-202676, FIG. 3A",inhibited
same,concentration dependence of inhibition of translocation,"[2]; different concentrations, 1 h at 37° C., FIG. 3B",concentration-dependent
CNCC(O)c1ccc(O)c(O)c1 (stereo not drawn) [adrenalin],effect of endogenous receptor ligands on the uptake of SpHtp1,[2],do not have an effect
O=C(N/N=C/c1ccc(O)c(O)c1)c1cc2ccccc2cc1O [dynasore],effect on SpHtp1^24-68-mRFP translocation,[1],accumulation of red fluorescence at the membrane
NC[C@H](O)c1ccc(O)c(O)c1 [noradrenalin],effect of endogenous receptor ligands on the uptake of SpHtp1,[2],do not have an effect
C[C@@H]1[C@H](O)[C@@H](C)/C=C/C=C/CC/C=C/C=C/C=C/C=C/C(O[C@H]2O[C@H](C)[C@@H](O)[C@H](N)[C@@H]2O)CC2O[C@](O)(CC(O)C(O)CCC(O)CC(O)CC(O)CC(=O)O[C@H]1C)CC(O)C2C(=O)O (stereo partly drawn) [nystatin],effect on SpHtp1^24-68-mRFP translocation,[1],no effect
SpHtp1^24-68-mRFP,"uptake into the cell, EC50",[3],1230 nM
B1,translocation into fish cells,[4],able to translocate into both fish and human cells
same,translocation into human cells,[5],able to translocate into both fish and human cells
B2,EC50,"[6]; cell line not given, read-out: uptake into the cell, EC50",1230 nM
same,time of binding of SpHtp1 to the cell surface,[6],5 to 10 min
same,time to significant uptake into the cell,[6],20 to 30 min
same,"in vitro complex formation after cross link (SDS-PAGE, LC-MS/MS)",[7],additional band for a cross-linked SpHtp1-SpHtp3 complex
same,"cytotoxic effects, cell morphology, viability",[8],"do not have any immediate cytotoxic effects on cells, and do not alter cell morphology or viability"
same,entry into human cells,[5]; via the β-adrenoceptor,able to enter human cells
same,interaction with the β2-adrenergic receptor by co-immunoprecipitation,[9],at least indirect interaction
